This passage reports protein stability index results from the supplement of paper PMC10567573.

B1: FBF1 (parent)
chain: QLQCSPAELQAELLHSQARLAELE
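Note: lentivirally expressed fusions sorted by FACS into six bins by GFP to DsRed ratio, PSI derived from sequencing read proportions per bin multiplied by bin number.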

Variants of B1 are the subject of this data set. The data set can be described thus: protein stability index of a GFP-peptide fusion (GPS, HEK-293T) (PSI 1-6); higher = more stable. The conditions noted are these: c terminus: a fixed tail appended.
Take QLQCSPAELQAELLHSQTRLAELE [A18T]: the protein stability index was 3.42.
With QLQCSPAELQAELLHSQARLLELE [A21L] the figure was 2.63.
With QLQCSPAELQAELLHSQARLQELE [A21Q] the figure was 2.67; with QLQCSPAELQAELLHSQARLYELE [A21Y], 2.31.
With QLQCSPAELQAELLHSQARLDELE [A21D], the protein stability index is 2.68.
With QLQCSPAELQAELLHSQARLTELE [A21T] the figure was 2.86; with QLQCSPAELQAELLHSQARLMELE [A21M], 2.31; with QLQCSPAELQAELLHSQARLSELE [A21S], 3.31.
Consider QLQCSPAELQAELLHSQARLEELE [A21E], for which the protein stability index was 2.61.
With QLQCSPAELQAELLHSQARLHELE [A21H] the figure was 2.98.
Take QLQCSPAELQAELLHSQARLWELE [A21W]: the protein stability index was 2.8.
As to QLQCSPAELQAELLHSQARLGELE [A21G], the protein stability index was found to be 3.79.
QLQCSPAELQAELLHSQARLVELE [A21V]: the protein stability index is 3.14.
As for QLQCSPAELQAELLHSQARLKELE [A21K], the protein stability index is 3.29.
With QLQCSPAELQAELLHSQARLNELE [A21N] the figure was 3.41; with QLQCSPAELQAELLHSQARLRELE [A21R], 3.25.
In the case of QLQCSPAELQAELLHSQARLPELE [A21P] it was 3.75; in that of QLQCSPAELQAELLHSQARLIELE [A21I], 2.55.
With QLQCSPAELQAELLHSQARLCELE [A21C] the figure was 3.01; with QLQCSPAELQAELLHSQARLFELE [A21F], 2.72; with QLQCSPAELQAELLHSQARLAEFE [L23F], 2.75.
Take QLQCSPAELQAELLHSQARLAEPE [L23P]: the protein stability index was found to be 4.03.
With QLQCSPAELQAELLHSQARLAESE [L23S] the figure was 4.84.
QLQCSPAELQAELLHSQARLAEGE [L23G]: the protein stability index was 4.71.
In the case of QLQCSPAELQAELLHSQARLAEHE [L23H] it was 4; in that of QLQCSPAELQAELLHSQARLAEKE [L23K], 4.65.
With QLQCSPAELQAELLHSQARLAEDE [L23D], the protein stability index came to 5.07.
With QLQCSPAELQAELLHSQARLAECE [L23C] the figure was 3.66; with QLQCSPAELQAELLHSQARLAERE [L23R], 4.14; with QLQCSPAELQAELLHSQARLAEIE [L23I], 2.59.
Consider QLQCSPAELQAELLHSQARLAETE [L23T], for which the protein stability index came to 4.18.
With QLQCSPAELQAELLHSQARLAEAE [L23A] the figure was 4.59.
Take QLQCSPAELQAELLHSQARLAEQE [L23Q]: the protein stability index is 4.98.
With QLQCSPAELQAELLHSQARLAEVE [L23V] the figure was 3.03.
In the case of QLQCSPAELQAELLHSQARLAEME [L23M] it was 3.38.
As for QLQCSPAELQAELLHSQARLAENE [L23N], the protein stability index stood at 4.79.
Take QLQCSPAELQAELLHSQARLAEEE [L23E]: the protein stability index is 4.48.
For QLQCSPAELQAELLHSQARLAQLE [E22Q], the protein stability index came to 2.53.
Take QLQCSPAELQAELLHSQARLADLE [E22D]: the protein stability index was determined as 2.72.
On to QLQCSPAELQAELLHSQARLANLE [E22N], for which the protein stability index came out at 3.21.
As for QLQCSPAELQAELLHSQARLACLE [E22C], the protein stability index worked out at 2.67.
With QLQCSPAELQAELLHSQARLASLE [E22S] the figure was 2.48; with QLQCSPAELQAELLHSQARLAPLE [E22P], 3.39; with QLQCSPAELQAELLHSQARLAWLE [E22W], 2.76.
Take QLQCSPAELQAELLHSQARLATLE [E22T]: the protein stability index worked out at 2.34.
For QLQCSPAELQAELLHSQARLAVLE [E22V], the protein stability index stood at 2.54.
For the variant QLQCSPAELQAELLHSQARLALLE [E22L], the protein stability index came out at 1.98.
With QLQCSPAELQAELLHSQARLAGLE [E22G] the figure was 2.91; with QLQCSPAELQAELLHSQARLAMLE [E22M], 3.12.
For QLQCSPAELQAELLHSQARLAILE [E22I], the protein stability index worked out at 2.16.
In the case of QLQCSPAELQAELLHSQARLAYLE [E22Y] it was 2.33; in that of QLQCSPAELQAELLHSQARLAKLE [E22K], 2.99.
With QLQCSPAELQAELLHSQARLARLE [E22R] the figure was 2.92; with QLQCSPAELQAELLHSQARLAHLE [E22H], 2.39; with QLQCSPAELQAELLHSQARLAALE [E22A], 2.83.
In the case of QLQCSPAELQAELLHSQARLAFLE [E22F] it was 2.25; in that of QLQCSPAELQAELLQSQARLAELE [H15Q], 3.71; in that of QLQCSPAELQAELLSSQARLAELE [H15S], 2.52.
In the case of QLQCSPAELQAELLRSQARLAELE [H15R], the protein stability index is 2.73.
With QLQCSPAELQAELLNSQARLAELE [H15N], the protein stability index is 2.81.
On to QLQCSPAELQAELLGSQARLAELE [H15G], for which the protein stability index is 4.04.
With QLQCSPAELQAELLVSQARLAELE [H15V] the figure was 2.85; with QLQCSPAELQAELLASQARLAELE [H15A], 3.78; with QLQCSPAELQAELLDSQARLAELE [H15D], 3.28.
Regarding QLQCSPAELQAELLCSQARLAELE [H15C], the protein stability index stood at 2.88.
With QLQCSPAELQAELLTSQARLAELE [H15T], the protein stability index came out at 3.56.
With QLQCSPAELQAELLWSQARLAELE [H15W] the figure was 2.65; with QLQCSPAELQAELLYSQARLAELE [H15Y], 1.92; with QLQCSPAELQAELLESQARLAELE [H15E], 3.81.
In the case of QLQCSPAELQAELLISQARLAELE [H15I] it was 1.87; in that of QLQCSPAELQAELLFSQARLAELE [H15F], 1.84; in that of QLQCSPAELQAELLPSQARLAELE [H15P], 4.91.
Consider QLQCSPAELQAELLKSQARLAELE [H15K], for which the protein stability index is 3.49.
In the case of QLQCSPAELQAELLLSQARLAELE [H15L] it was 2.27; in that of QLQCSPAELQAELLMSQARLAELE [H15M], 2.22; in that of QLQCSPAELQAELLHSQAYLAELE [R19Y], 1.89.
With QLQCSPAELQAELLHSQAGLAELE [R19G] the figure was 4.16.
Take QLQCSPAELQAELLHSQATLAELE [R19T]: the protein stability index stood at 3.88.
Regarding QLQCSPAELQAELLHSQAMLAELE [R19M], the protein stability index was 1.97.
In the case of QLQCSPAELQAELLHSQACLAELE [R19C] it was 2.84; in that of QLQCSPAELQAELLHSQALLAELE [R19L], 1.79; in that of QLQCSPAELQAELLHSQAVLAELE [R19V], 2.55.
With QLQCSPAELQAELLHSQAELAELE [R19E] the figure was 2.89; with QLQCSPAELQAELLHSQAALAELE [R19A], 2.6.
With QLQCSPAELQAELLHSQAKLAELE [R19K] the figure was 3.05; with QLQCSPAELQAELLHSQAFLAELE [R19F], 2.12; with QLQCSPAELQAELLHSQAHLAELE [R19H], 3.34.
Take QLQCSPAELQAELLHSQASLAELE [R19S]: the protein stability index was 4.45.
In the case of QLQCSPAELQAELLHSQADLAELE [R19D] it was 4.27.
In the case of QLQCSPAELQAELLHSQAILAELE [R19I], the protein stability index was 1.99.
In the case of QLQCSPAELQAELLHSQAWLAELE [R19W] it was 2.12; in that of QLQCSPAELQAELLHSQAQLAELE [R19Q], 2.94.
With QLQCSPAELQAELLHSQANLAELE [R19N] the figure was 4.2; with QLQCSPAELQAELLHSQAPLAELE [R19P], 4.61.
